What was measured:
[1] = system: P37277; assay: anion-exchange chromatography; DDM-solubilised thylakoid membranes (2 mg chl) on DEAE, MgSO4 gradient, 0.04% DDM; A700 peak areas of the PSI trimer and PSI monomer fractions; cells grown under increased photon flux (FL); WT and ORR1 strains; settings: other: anion-exchange chromatography
[2] = system: P37277; assay: anion-exchange chromatography; DDM-solubilised thylakoid membranes (2 mg chl) on DEAE, MgSO4 gradient, 0.04% DDM; A700 peak areas of the PSI trimer and PSI monomer fractions; cells grown under standard conditions (GL); WT and ORR1 strains; settings: other: anion-exchange chromatography
[3] = biological target: photosystem I (PSI) reaction center (Synechocystis sp. PCC 6803 (endogenous in S. 6803 cells)) (UniProt P37277); assay: anion-exchange chromatography; DDM-solubilised thylakoid membranes (2 mg chl) on DEAE, MgSO4 gradient, 0.04% DDM; A700 peak areas of the PSI trimer and PSI monomer fractions; cells grown under increased photon flux (FL); WT and ORR1 strains
[4] = biological target: photosystem I (PSI) reaction center (Synechocystis sp. PCC 6803 (endogenous in S. 6803 cells)) (UniProt P37277); assay: anion-exchange chromatography; DDM-solubilised thylakoid membranes (2 mg chl) on DEAE, MgSO4 gradient, 0.04% DDM; A700 peak areas of the PSI trimer and PSI monomer fractions; cells grown under standard conditions (GL); WT and ORR1 strains
[5] = biological target: photosystem I (PSI) reaction center (Synechocystis sp. PCC 6803 (endogenous in S. 6803 cells)) (UniProt P37277); assay: native gel or EMSA; BN-PAGE, 4-16% Bis/Tris gels, of PSI fractions isolated by anion-exchange chromatography (or sucrose gradients), 0.04% DDM; bands compared to literature; WT and ORR1 cells, GL or FL

Chain of photosystem I (PSI) reaction center (P37277 whole entry, looked up): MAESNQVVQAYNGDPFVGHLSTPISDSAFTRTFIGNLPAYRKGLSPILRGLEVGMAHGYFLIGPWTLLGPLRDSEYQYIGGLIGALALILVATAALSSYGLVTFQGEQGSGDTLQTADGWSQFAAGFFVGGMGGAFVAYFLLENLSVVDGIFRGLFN

Row | Monomer : trimer (A700 peak areas), ORR1 strain [3] | Monomer : trimer (A700 peak areas), WT strain [3] | Trimer : monomer (A700 peak areas), ORR1 strain [3] | Trimer : monomer (A700 peak areas), WT strain [3] | Monomer : trimer (A700 peak areas), ORR1 strain [4] | Monomer : trimer (A700 peak areas), WT strain [4] | Trimer : monomer (A700 peak areas), ORR1 strain [4] | Trimer : monomer (A700 peak areas), WT strain [4] | stoichiometry N [5] | Substance | Monomer (% of total PSI), ORR1 strain (% of total PSI) [1] | Monomer (% of total PSI), WT strain (% of total PSI) [1] | Monomer (% of total PSI), ORR1 strain (% of total PSI) [2] | Monomer (% of total PSI), WT strain (% of total PSI) [2]
1 |  |  |  |  |  |  |  |  |  | photosystem I (PSI) reaction center | 34 | 10 | 18 | 14
2 | 0.53 | 0.11 | 2 | 9.2 | 0.23 | 0.17 | 4.6 | 6.3 | 3 | photosystem I (PSI) reaction center (from UniProt P37277 1-157) (complex) |  |  |  | 
